IntAct's records for PubMed 29039417

B1: BBSome complex member BBS5 (Homo sapiens), Q8N3I7 (parent)
chain: MSVLDALWEDRDVRFDLSAQQMKTRPGEVLIDCLDSIEDTKGNNGDRGRLLVTNLRILWHSLALSRVNVSVGYNCILNITTRTANSKLRGQTEALYILTKCNSTRFEFIFTNLVPGSPRLFTSVMAVHRAYETSKMYRDFKLRSALIQNKQLRLLPQEHVYDKINGVWNLSSDQGNLGTFFITNVRIVWHANMNDSFNVSIPYLQIRSIKIRDSKFGLALVIESSQQSGGYVLGFKIDPVEKLQESVKEINSLHKVYSASPIFGVDYEMEEKPQPLEALTVEQIQDDVEIDSDGHTDAFVAYFADGNKQQDREPVFSEELGLAIEKLKDGFTLQGLWEVMS
partner: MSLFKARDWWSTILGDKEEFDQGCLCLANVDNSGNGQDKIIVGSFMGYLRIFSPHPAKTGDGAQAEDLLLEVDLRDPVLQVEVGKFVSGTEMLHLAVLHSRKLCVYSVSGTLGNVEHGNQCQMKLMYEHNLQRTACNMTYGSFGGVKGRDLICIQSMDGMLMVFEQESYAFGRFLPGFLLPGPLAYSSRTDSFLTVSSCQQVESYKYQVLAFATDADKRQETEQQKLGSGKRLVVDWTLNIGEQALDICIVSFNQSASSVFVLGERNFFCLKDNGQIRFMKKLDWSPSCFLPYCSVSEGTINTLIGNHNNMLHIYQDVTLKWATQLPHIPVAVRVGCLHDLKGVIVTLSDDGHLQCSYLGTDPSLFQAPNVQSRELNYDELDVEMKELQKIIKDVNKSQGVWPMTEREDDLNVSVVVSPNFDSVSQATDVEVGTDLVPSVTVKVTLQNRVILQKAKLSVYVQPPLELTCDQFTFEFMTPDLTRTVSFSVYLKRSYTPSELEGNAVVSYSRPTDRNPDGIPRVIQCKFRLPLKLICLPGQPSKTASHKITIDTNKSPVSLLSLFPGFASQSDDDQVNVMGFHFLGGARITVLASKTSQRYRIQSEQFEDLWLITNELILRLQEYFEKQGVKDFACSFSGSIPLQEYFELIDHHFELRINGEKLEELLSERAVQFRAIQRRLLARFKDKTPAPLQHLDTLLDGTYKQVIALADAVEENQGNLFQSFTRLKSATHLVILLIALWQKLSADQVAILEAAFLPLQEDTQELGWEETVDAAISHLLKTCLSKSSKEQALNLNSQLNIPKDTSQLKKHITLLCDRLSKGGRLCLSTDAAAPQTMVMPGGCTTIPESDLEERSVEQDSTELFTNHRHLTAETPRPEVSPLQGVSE

Variants of: B1
Details: with pthb1_human BBS9, Q3SYG4

Effect of a mutation on the interaction, with no effect:
MSVLDALWEDRDVRFDLSAQQMKTRPGEVLIDCLDSIEDTKGNNGDRGRLLVTNLRILWHSLALSRVNVSVGYNCILNITTRTANSKLRGQTEALYILTKCNSTRFEFIFTNLVPGSPRLFTSVMAVHRAYETSKMYRDFKLRSALIQNKQLRLLPQEHVYDKINGVWNLSSDQGNLGTFFITNVRIVWHANMNDSFNVSIPYLQIRSIKIRDSKFGLALVIESSQQSGGYVLGFKIDPVEKLQESVKEINSLHKVYSASPIFGVDYEMEEAPQPLEALTVEQIQDDVEIDSDGHTDAFVAYFADGNKQQDREPVFSEELGLAIEKLKDGFTLQGLWEVMS [K272A]
MSVLDALWEDRDVRFDLSAQQMKTRPGEVLIDCLDSIEDTKGNNGDRGRLLVTNLRILWHSLALSRVNVSVGYNCILNITTRTANSKLRGQTEALYILTKCNSTRFEFIFTNLVPGSPRLFTSVMAVHRAYETSKMYRDFKLRSALIQNKQLRLLPQEHVYDKINGVWNLSSDQGNLGTFFITNVRIVWHANMNDSFNVSIPYLQIRSIKIRDSKFGLALVIESSQQSGGYVLGFKIDPVEKLQESVKEINSLHKVYSASPIFGVDYEMEEEPQPLEALTVEQIQDDVEIDSDGHTDAFVAYFADGNKQQDREPVFSEELGLAIEKLKDGFTLQGLWEVMS [K272E]
MSVLDALWEDRDVRFDLSAQQMKTRPGEVLIDCLDSIEDTKGNNGDRGRLLVTNLRILWHSLALSRVNVSVGYNCILNITTRTANSKLRGQTEALYILTKCNSTRFEFIFTNLVPGSPRLFTSVMAVHRAYETSKMYRDFKLRSALIQNKQLRLLPQEHVYDKINGVWNLSSDQGNLGTFFITNVRIVWHANMNDSFNVSIPYLQIRSIKIRDSKFGLALVIESSQQSGGYVLGFKIDPVEKLQESVKEINSLHKVYSASPIFGVDYEMEEKAQPLEALTVEQIQDDVEIDSDGHTDAFVAYFADGNKQQDREPVFSEELGLAIEKLKDGFTLQGLWEVMS [P273A]
MSVLDALWEDRDVRFDLSAQQMKTRPGEVLIDCLDSIEDTKGNNGDRGRLLVTNLRILWHSLALSRVNVSVGYNCILNITTRTANSKLRGQTEALYILTKCNSTRFEFIFTNLVPGSPRLFTSVMAVHRAYETSKMYRDFKLRSALIQNKQLRLLPQEHVYDKINGVWNLSSDQGNLGTFFITNVRIVWHANMNDSFNVSIPYLQIRSIKIRDSKFGLALVIESSQQSGGYVLGFKIDPVEKLQESVKEINSLHKVYSASPIFGVDYEMEEKEQPLEALTVEQIQDDVEIDSDGHTDAFVAYFADGNKQQDREPVFSEELGLAIEKLKDGFTLQGLWEVMS [P273E]
MSVLDALWEDRDVRFDLSAQQMKTRPGEVLIDCLDSIEDTKGNNGDRGRLLVTNLRILWHSLALSRVNVSVGYNCILNITTRTANSKLRGQTEALYILTKCNSTRFEFIFTNLVPGSPRLFTSVMAVHRAYETSKMYRDFKLRSALIQNKQLRLLPQEHVYDKINGVWNLSSDQGNLGTFFITNVRIVWHANMNDSFNVSIPYLQIRSIKIRDSKFGLALVIESSQQSGGYVLGFKIDPVEKLQESVKEINSLHKVYSASPIFGVDYEMEEKKQPLEALTVEQIQDDVEIDSDGHTDAFVAYFADGNKQQDREPVFSEELGLAIEKLKDGFTLQGLWEVMS [P273K]
MSVLDALWEDRDVRFDLSAQQMKTRPGEVLIDCLDSIEDTKGNNGDRGRLLVTNLRILWHSLALSRVNVSVGYNCILNITTRTANSKLRGQTEALYILTKCNSTRFEFIFTNLVPGSPRLFTSVMAVHRAYETSKMYRDFKLRSALIQNKQLRLLPQEHVYDKINGVWNLSSDQGNLGTFFITNVRIVWHANMNDSFNVSIPYLQIRSIKIRDSKFGLALVIESSQQSGGYVLGFKIDPVEKLQESVKEINSLHKVYSASPIFGVDYEMEEKPAPLEALTVEQIQDDVEIDSDGHTDAFVAYFADGNKQQDREPVFSEELGLAIEKLKDGFTLQGLWEVMS [Q274A]
MSVLDALWEDRDVRFDLSAQQMKTRPGEVLIDCLDSIEDTKGNNGDRGRLLVTNLRILWHSLALSRVNVSVGYNCILNITTRTANSKLRGQTEALYILTKCNSTRFEFIFTNLVPGSPRLFTSVMAVHRAYETSKMYRDFKLRSALIQNKQLRLLPQEHVYDKINGVWNLSSDQGNLGTFFITNVRIVWHANMNDSFNVSIPYLQIRSIKIRDSKFGLALVIESSQQSGGYVLGFKIDPVEKLQESVKEINSLHKVYSASPIFGVDYEMEEKPEPLEALTVEQIQDDVEIDSDGHTDAFVAYFADGNKQQDREPVFSEELGLAIEKLKDGFTLQGLWEVMS [Q274E]
MSVLDALWEDRDVRFDLSAQQMKTRPGEVLIDCLDSIEDTKGNNGDRGRLLVTNLRILWHSLALSRVNVSVGYNCILNITTRTANSKLRGQTEALYILTKCNSTRFEFIFTNLVPGSPRLFTSVMAVHRAYETSKMYRDFKLRSALIQNKQLRLLPQEHVYDKINGVWNLSSDQGNLGTFFITNVRIVWHANMNDSFNVSIPYLQIRSIKIRDSKFGLALVIESSQQSGGYVLGFKIDPVEKLQESVKEINSLHKVYSASPIFGVDYEMEEKPKPLEALTVEQIQDDVEIDSDGHTDAFVAYFADGNKQQDREPVFSEELGLAIEKLKDGFTLQGLWEVMS [Q274K]
MSVLDALWEDRDVRFDLSAQQMKTRPGEVLIDCLDSIEDTKGNNGDRGRLLVTNLRILWHSLALSRVNVSVGYNCILNITTRTANSKLRGQTEALYILTKCNSTRFEFIFTNLVPGSPRLFTSVMAVHRAYETSKMYRDFKLRSALIQNKQLRLLPQEHVYDKINGVWNLSSDQGNLGTFFITNVRIVWHANMNDSFNVSIPYLQIRSIKIRDSKFGLALVIESSQQSGGYVLGFKIDPVEKLQESVKEINSLHKVYSASPIFGVDYEMEEKPQALEALTVEQIQDDVEIDSDGHTDAFVAYFADGNKQQDREPVFSEELGLAIEKLKDGFTLQGLWEVMS [P275A]
MSVLDALWEDRDVRFDLSAQQMKTRPGEVLIDCLDSIEDTKGNNGDRGRLLVTNLRILWHSLALSRVNVSVGYNCILNITTRTANSKLRGQTEALYILTKCNSTRFEFIFTNLVPGSPRLFTSVMAVHRAYETSKMYRDFKLRSALIQNKQLRLLPQEHVYDKINGVWNLSSDQGNLGTFFITNVRIVWHANMNDSFNVSIPYLQIRSIKIRDSKFGLALVIESSQQSGGYVLGFKIDPVEKLQESVKEINSLHKVYSASPIFGVDYEMEEKPQELEALTVEQIQDDVEIDSDGHTDAFVAYFADGNKQQDREPVFSEELGLAIEKLKDGFTLQGLWEVMS [P275E]
MSVLDALWEDRDVRFDLSAQQMKTRPGEVLIDCLDSIEDTKGNNGDRGRLLVTNLRILWHSLALSRVNVSVGYNCILNITTRTANSKLRGQTEALYILTKCNSTRFEFIFTNLVPGSPRLFTSVMAVHRAYETSKMYRDFKLRSALIQNKQLRLLPQEHVYDKINGVWNLSSDQGNLGTFFITNVRIVWHANMNDSFNVSIPYLQIRSIKIRDSKFGLALVIESSQQSGGYVLGFKIDPVEKLQESVKEINSLHKVYSASPIFGVDYEMEEKPQKLEALTVEQIQDDVEIDSDGHTDAFVAYFADGNKQQDREPVFSEELGLAIEKLKDGFTLQGLWEVMS [P275K]
MSVLDALWEDRDVRFDLSAQQMKTRPGEVLIDCLDSIEDTKGNNGDRGRLLVTNLRILWHSLALSRVNVSVGYNCILNITTRTANSKLRGQTEALYILTKCNSTRFEFIFTNLVPGSPRLFTSVMAVHRAYETSKMYRDFKLRSALIQNKQLRLLPQEHVYDKINGVWNLSSDQGNLGTFFITNVRIVWHANMNDSFNVSIPYLQIRSIKIRDSKFGLALVIESSQQSGGYVLGFKIDPVEKLQESVKEINSLHKVYSASPIFGVDYEMEEKPQPAEALTVEQIQDDVEIDSDGHTDAFVAYFADGNKQQDREPVFSEELGLAIEKLKDGFTLQGLWEVMS [L276A]
MSVLDALWEDRDVRFDLSAQQMKTRPGEVLIDCLDSIEDTKGNNGDRGRLLVTNLRILWHSLALSRVNVSVGYNCILNITTRTANSKLRGQTEALYILTKCNSTRFEFIFTNLVPGSPRLFTSVMAVHRAYETSKMYRDFKLRSALIQNKQLRLLPQEHVYDKINGVWNLSSDQGNLGTFFITNVRIVWHANMNDSFNVSIPYLQIRSIKIRDSKFGLALVIESSQQSGGYVLGFKIDPVEKLQESVKEINSLHKVYSASPIFGVDYEMEEKPQPEEALTVEQIQDDVEIDSDGHTDAFVAYFADGNKQQDREPVFSEELGLAIEKLKDGFTLQGLWEVMS [L276E]
MSVLDALWEDRDVRFDLSAQQMKTRPGEVLIDCLDSIEDTKGNNGDRGRLLVTNLRILWHSLALSRVNVSVGYNCILNITTRTANSKLRGQTEALYILTKCNSTRFEFIFTNLVPGSPRLFTSVMAVHRAYETSKMYRDFKLRSALIQNKQLRLLPQEHVYDKINGVWNLSSDQGNLGTFFITNVRIVWHANMNDSFNVSIPYLQIRSIKIRDSKFGLALVIESSQQSGGYVLGFKIDPVEKLQESVKEINSLHKVYSASPIFGVDYEMEEKPQPKEALTVEQIQDDVEIDSDGHTDAFVAYFADGNKQQDREPVFSEELGLAIEKLKDGFTLQGLWEVMS [L276K]
MSVLDALWEDRDVRFDLSAQQMKTRPGEVLIDCLDSIEDTKGNNGDRGRLLVTNLRILWHSLALSRVNVSVGYNCILNITTRTANSKLRGQTEALYILTKCNSTRFEFIFTNLVPGSPRLFTSVMAVHRAYETSKMYRDFKLRSALIQNKQLRLLPQEHVYDKINGVWNLSSDQGNLGTFFITNVRIVWHANMNDSFNVSIPYLQIRSIKIRDSKFGLALVIESSQQSGGYVLGFKIDPVEKLQESVKEINSLHKVYSASPIFGVDYEMEEKPQPLAALTVEQIQDDVEIDSDGHTDAFVAYFADGNKQQDREPVFSEELGLAIEKLKDGFTLQGLWEVMS [E277A]
MSVLDALWEDRDVRFDLSAQQMKTRPGEVLIDCLDSIEDTKGNNGDRGRLLVTNLRILWHSLALSRVNVSVGYNCILNITTRTANSKLRGQTEALYILTKCNSTRFEFIFTNLVPGSPRLFTSVMAVHRAYETSKMYRDFKLRSALIQNKQLRLLPQEHVYDKINGVWNLSSDQGNLGTFFITNVRIVWHANMNDSFNVSIPYLQIRSIKIRDSKFGLALVIESSQQSGGYVLGFKIDPVEKLQESVKEINSLHKVYSASPIFGVDYEMEEKPQPLKALTVEQIQDDVEIDSDGHTDAFVAYFADGNKQQDREPVFSEELGLAIEKLKDGFTLQGLWEVMS [E277K]
MSVLDALWEDRDVRFDLSAQQMKTRPGEVLIDCLDSIEDTKGNNGDRGRLLVTNLRILWHSLALSRVNVSVGYNCILNITTRTANSKLRGQTEALYILTKCNSTRFEFIFTNLVPGSPRLFTSVMAVHRAYETSKMYRDFKLRSALIQNKQLRLLPQEHVYDKINGVWNLSSDQGNLGTFFITNVRIVWHANMNDSFNVSIPYLQIRSIKIRDSKFGLALVIESSQQSGGYVLGFKIDPVEKLQESVKEINSLHKVYSASPIFGVDYEMEEKPQPLEELTVEQIQDDVEIDSDGHTDAFVAYFADGNKQQDREPVFSEELGLAIEKLKDGFTLQGLWEVMS [A278E]
